Measurements taken from the supplement of paper PMC10567573.

B1: CDKN1A (parent)
chain: GRKRRQTSMTDFYHSKRRLIFSKR
B2: TRIM9 (parent)
chain: CVQCKMPVCYQCLEEGKHSSHEVK

Variants of: B1
Assay: protein stability index of a GFP-peptide fusion (GPS, HEK-293T) (PSI 1-6); higher = more stable
Conditions: c terminus: a fixed tail appended
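Note: lentivirally expressed fusions sorted by FACS into six bins by GFP to DsRed ratio, PSI derived from sequencing read proportions per bin multiplied by bin number.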

Protein stability index of substitutions, site by site:
F12: R 2.73; K 2.36; V 3.38; A 3.27; E 3.15; C 2.3; D 3.14; P 3.34; S 2.42; Q 2.46; G 3.04; H 1.61
I20: K 2.99; N 3.51; T 2.86; W 2.3; C 2.93; S 2.5; R 2.15; D 2.84; A 3.46; F 3.1; M 2.86
R4: M 2.77; Y 3.36; G 3.58; A 2.39; T 3.95; H 2.98; K 3.46; C 2.73; S 2.85; D 3.24; N 4.63; P 3.12; W 3.56
M9: N 3.29; R 3.05; F 2.6; P 2.69; C 2.34; S 3.08; V 2.96; T 1.91; I 3.23; A 2.66; E 2.27; W 3.37; K 2.62; H 3.21
T10: K 2.52; Y 2.53; W 2.16; H 2.93; G 2.85; A 1.75; L 2.45; M 2.38; R 2.39; F 3.46; P 2.48; C 3.68; S 2.54
S22: C 2.35; M 4.04; R 2.79; D 2.17; A 3.99; T 2.87; I 2.53; N 2.57
D11: H 1.82; V 2.44; K 2.77; S 3.06; R 3.33; L 2.29; I 2.12; Y 2.07; P 3.34; N 2.4; T 2.2; A 2.37; F 2.51; Q 2.89; M 3.13; W 2.21
R17: E 3.75; M 3.08; T 3.02; I 2.97; W 2.28; A 2.13; Q 3.46; H 2.64; C 2.76; S 3.19; N 3.38; F 2.19; P 2.62; G 2.04; V 4.34; D 3.57
R2: D 2.78; N 2.74; E 4.5; L 2.6; T 2.8; H 2.33; G 3.19; S 3.05; M 3.79; V 3.22; W 2.53; F 3.25; Y 2.22; K 3.08; A 2.05
R5: H 3.17; F 2.64; K 2.57; Q 2.87; Y 3.17; I 3.03; S 2.44; L 3.53; A 2.74; N 2.74; G 2.4; T 3.64
K3: D 3.2; T 2.5; V 2.83; Q 2.98; P 2.16; I 2.76; H 3.57; E 2.19; N 2.73; Y 5.28; A 3.12; F 2.4; S 3.96; M 2.76; C 3.54; L 3.18
R24: P 3.22; D 3.29; L 3.19; V 2; H 2.4; C 3.93; G 3.52; T 2.21; W 3.26; Q 3.2; F 2.24; K 2.24; I 2.91; N 3.1; Y 2.91; E 2.67
K23: Y 2.74; D 2.95; N 2.3; A 3.19; L 1.96; W 2.87; Q 1.58; T 3.3; F 3.02; P 2.48; S 2.78
S15: M 1.92; Y 3.78; W 3.71; A 2.47; C 2.1; N 3.16; F 3.02; L 1.78; T 2.44; R 3.43; P 2.59
F21: P 1.99; M 3.48; I 3.27; K 3.14; A 2.4; L 3.08; G 3.13; S 3.66; T 3.22; W 3.45; D 3.79; E 2.62; Y 3.38; N 3.63; C 3.58
K16: V 3.12; F 2.28; I 3.82; H 2.96; Q 2.83; N 2.99; T 4.09; E 3.76; G 2.62; W 3.97; P 2.07; R 4.25; Y 2.93; C 3.39; A 3.51
S8: E 2.74; M 2.68; F 3.4; C 3.59; R 2.72; T 3.3; Y 2.35; A 2.41; P 1.76; I 2.6; D 2.46; Q 2.69; L 3.4; K 3.4
Q6: E 2.73; H 3.62; V 2.38; D 2.1; M 2.04; R 2.4; S 2.25; K 2.55; C 3.21; Y 2.67; W 2.47; I 2.79; T 3.34; A 2.06; G 2.76
H14: Q 3.39; F 2.96; Y 4; W 2.08; L 3.02; E 3.45; S 2.34; M 3.3; C 2.43; P 4.57; R 3.52; N 3.62; I 2.72
Y13: Q 3.92; H 3.22; W 2.7; V 2.79; F 3.27; K 2.66; G 3.02; P 3.53; R 3.93; N 3.25; T 3.69; M 2.33; C 3.2; S 3.57; E 3.73
R18: L 3.13; V 2.93; K 2.64; P 2.11; M 1.86; S 2.77; F 2.78; N 2.76; A 3.35; D 2.48; G 2.8; T 2.45; Q 1.47
T7: D 2.1; M 2.6; L 2.79; W 2.36; N 2.48; A 1.97; Q 2.12; H 2.67; S 2.71; E 2.22; C 2.87; I 2.38; K 3.09; Y 2.65
G1: N 2.55; S 3.84; H 3.16; V 2.06; D 3.06; P 3.63; E 3.02; T 2.06; F 2.85; L 2.86; R 3.87; W 3.87; Q 3.03; Y 2.99; K 3.34; C 3.45; A 2.81; I 2.94; M 2.88
L19: M 3.98; F 2.88; W 3.25; R 2.77; I 2.65; K 3.86; H 3.78; Y 3.91; C 2.81; Q 3.85; G 2.71; N 3

Variants of: B2
Assay: as above
Conditions: c terminus: a fixed tail appended

Protein stability index: each site, then its substitutions
C1: D 3.77; F 2.58; H 4.52; G 2.88; E 3.95
